Test results: patent US20050245438A1 (SALK INSTITUTE FOR BIOLOGICAL STUDIES, published 2005)
Bridge positions count the residues as written; N and C are the ends. Square brackets hold non-standard residues; d marks the D form. * marks the point of attachment. d2Nal(3S-Me) = C[C@@H](c1ccc2ccccc2c1)[C@@H](N)C(=O)O; Phe(4-NH2) = Nc1ccc(C[C@H](N)C(=O)O)cc1; 2Nal = N[C@@H](Cc1ccc2ccccc2c1)C(=O)O; Carbamoyl = NC(=O)*

B1: (cyclo)H-Cys-Phe-4Aph-D-Trp-Lys-Thr-Phe-Cys-OH (peptide)
peptide: H-CF[Phe(4-NH2)][dW]KTFC-OH
modifications: disulfide 1-8
notes: synthetic cyclic octapeptide; also called Peptide No. 2
B2: (cyclo)H-Cys-Phe-Tyr-threo-(2R,3S)C^βMe-2Nal-Lys-Thr-Phe-Cys-OH (peptide)
peptide: H-CFY[d2Nal(3S-Me)]KTFC-OH
modifications: disulfide 1-8
SMILES: C[C@@H](O)[C@@H]1NC(=O)[C@H](CCCCN)NC(=O)[C@@H]([C@@H](C)c2ccc3ccccc3c2)NC(=O)[C@H](Cc2ccc(O)cc2)NC(=O)[C@H](Cc2ccccc2)NC(=O)[C@@H](N)CSSC[C@@H](C(=O)O)NC(=O)[C@H](Cc2ccccc2)NC1=O
notes: also called Peptide No. 17
B3: (cyclo)Cbm-Cys-Phe-4Aph-Trp-Lys-Thr-Phe-Cys-OH (peptide)
peptide: Carbamoyl-CF[Phe(4-NH2)]WKTFC-OH
modifications: disulfide 1-8
notes: synthetic cyclic octapeptide; also called Peptide No. 3
B4: (cyclo)Cbm-Cys-Phe-4Aph-D-Trp-Lys-Thr-Phe-Cys-OH (peptide)
peptide: Carbamoyl-CF[Phe(4-NH2)][dW]KTFC-OH
modifications: disulfide 1-8
SMILES: C[C@@H](O)[C@@H]1NC(=O)[C@H](CCCCN)NC(=O)[C@@H](Cc2c[nH]c3ccccc23)NC(=O)[C@H](Cc2ccc(N)cc2)NC(=O)[C@H](Cc2ccccc2)NC(=O)[C@@H](NC(N)=O)CSSC[C@@H](C(=O)O)NC(=O)[C@H](Cc2ccccc2)NC1=O
notes: synthetic cyclic octapeptide; also called Peptide No. 4
B5: (cyclo)H-Cys-Phe-4Aph-2Nal-Lys-Thr-Phe-Cys-OH (peptide)
peptide: H-CF[Phe(4-NH2)][2Nal]KTFC-OH
modifications: disulfide 1-8
SMILES: C[C@@H](O)[C@@H]1NC(=O)[C@H](CCCCN)NC(=O)[C@H](Cc2ccc3ccccc3c2)NC(=O)[C@H](Cc2ccc(N)cc2)NC(=O)[C@H](Cc2ccccc2)NC(=O)[C@@H](N)CSSC[C@@H](C(=O)O)NC(=O)[C@H](Cc2ccccc2)NC1=O
notes: synthetic cyclic octapeptide; also called Peptide 5; Peptide No. 5
B6: (cyclo)H-Tyr-Cys-Phe-4Aph-Trp-Lys-Thr-Phe-Cys-OH (peptide)
peptide: H-YCF[Phe(4-NH2)]WKTFC-OH
modifications: disulfide 2-9
notes: synthetic cyclic nonapeptide; also called Peptide No. 6
B7: (cyclo)H-Tyr-Cys-Phe-4Aph-D-Trp-Lys-Thr-Phe-Cys-OH (peptide)
peptide: H-YCF[Phe(4-NH2)][dW]KTFC-OH
modifications: disulfide 2-9
notes: synthetic cyclic nonapeptide; also called Peptide No. 7
B8: (cyclo)Cbm-Tyr-Cys-Phe-4Aph-Trp-Lys-Thr-Phe-Cys-OH (peptide)
peptide: Carbamoyl-YCF[Phe(4-NH2)]WKTFC-OH
modifications: disulfide 2-9
notes: synthetic cyclic nonapeptide; also called Peptide No. 8
B9: des-AA^1,2,4,5,12,13[4Aph^7]-SRIF, (cyclo)H-Cys-Phe-4Aph-Trp-Lys-Thr-Phe-Cys-OH (peptide)
peptide: H-CF[Phe(4-NH2)]WKTFC-OH
modifications: disulfide 1-8
notes: synthetic cyclic octapeptide, free N-terminus and free acid C-terminus; also called Peptide No. 1
B10: (cyclo)Cbm-Cys-Phe-4Aph-Trp-Lys-Thr-Tyr-Cys-OH (peptide)
peptide: Carbamoyl-CF[Phe(4-NH2)]WKTYC-OH
modifications: disulfide 1-8
notes: synthetic cyclic octapeptide; also called Peptide No. 10
B11: (cyclo)H-Cys-Phe-4Aph-Trp-Lys-Thr-Tyr-Cys-OH (peptide)
peptide: H-CF[Phe(4-NH2)]WKTYC-OH
modifications: disulfide 1-8
notes: synthetic cyclic octapeptide; also called Peptide 9; Peptide No. 9

Target: T1, cloned human SRIF receptor SSTR1 (human, UniProt P30872 1-391)
T1 construct: whole, on cells; also called hSSTR1
Experiment: radioligand displacement (125I-[Leu8,D-Trp22,Tyr25]SRIF-28), membrane pellet sections
Protocol: (§1) Cells are washed twice with and scraped into ice-cold 0.05 M Tris-HCl (pH 7.4), collected by centrifugation, and homogenized using a rotor/stator/system in the same buffer. After centrifugation at 120 g for 5 min at 4° C., the supernatant is collected and centrifuged again at 48,000 g for 30 min at 4° C. The resulting pellet is resuspended in ice-cold Tris buffer, transferred into a microfuge tube, and centrifuged at 20,000 g for 15 min at 4° C. After withdrawal of the supernatant, the membrane pellet is stored at −80° C.
(§2) Receptor autoradiography is performed on 20 μm thick cryostat sections of the membrane pellets, mounted on microscope slides, and then stored at −20° C. […] Increasing concentrations of the unlabeled peptide are used ranging from 0.1-1000 nM. Unlabeled somatostatin-28 is run in parallel using the same increasing concentrations, as a control. IC₅₀ values are calculated after quantification of the data using a computer-assisted image processing system as known in this art.

T1 sequence (P30872 whole entry): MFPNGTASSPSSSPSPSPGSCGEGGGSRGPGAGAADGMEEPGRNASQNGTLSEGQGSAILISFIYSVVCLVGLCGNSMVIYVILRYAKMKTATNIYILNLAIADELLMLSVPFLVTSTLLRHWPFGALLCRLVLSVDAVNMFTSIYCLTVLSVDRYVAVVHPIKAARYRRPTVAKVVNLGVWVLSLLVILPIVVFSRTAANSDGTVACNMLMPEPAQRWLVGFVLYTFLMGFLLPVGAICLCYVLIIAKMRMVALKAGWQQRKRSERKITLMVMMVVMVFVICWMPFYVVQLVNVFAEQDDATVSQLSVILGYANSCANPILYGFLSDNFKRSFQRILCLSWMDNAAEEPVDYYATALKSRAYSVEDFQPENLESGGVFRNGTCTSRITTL

B1 and H-[dC]FY[d2Nal(3S-Me)]KTFC-OH (disulfide 1-8, also called Peptide No. 16) [(cyclo)H-D-Cys-Phe-Tyr-threo-(2R,3S)C^βMe-2Nal-Lys-Thr-Phe-Cys-OH] are within 1.5-fold of each other in IC50: 450 nM for the first, 545 nM for the second.

Going from B2 to B3, the IC50 rises from 410 nM to 650 nM (1.6-fold). The first is the more potent here.

B4 and B5 are within 1.5-fold of each other in IC50: 840 nM for the first, about 1100 nM for the second.

First: B6
Second: B7
The IC50 of the first is 1.9-fold lower: 270 nM for the first, 517 nM for the second. The first is the more potent here.

Going from B8 to B9, the IC50 falls from 347 nM to 213 nM (1.6-fold). The second is the more potent here.

Compared with B10, B11 is 2.3-fold lower in IC50: 757 nM for the first, 327 nM for the second. The second is the more potent here.

Target: T2, cloned human SRIF receptor SSTR2 (human, UniProt P30874 1-369)
T2 construct: whole, on cells; assayed as cryostat sections of membrane pellets of the transfected cells; also called hSSTR2
Experiment: as above
Protocol: as §1, §2

T2 sequence (P30874 whole entry): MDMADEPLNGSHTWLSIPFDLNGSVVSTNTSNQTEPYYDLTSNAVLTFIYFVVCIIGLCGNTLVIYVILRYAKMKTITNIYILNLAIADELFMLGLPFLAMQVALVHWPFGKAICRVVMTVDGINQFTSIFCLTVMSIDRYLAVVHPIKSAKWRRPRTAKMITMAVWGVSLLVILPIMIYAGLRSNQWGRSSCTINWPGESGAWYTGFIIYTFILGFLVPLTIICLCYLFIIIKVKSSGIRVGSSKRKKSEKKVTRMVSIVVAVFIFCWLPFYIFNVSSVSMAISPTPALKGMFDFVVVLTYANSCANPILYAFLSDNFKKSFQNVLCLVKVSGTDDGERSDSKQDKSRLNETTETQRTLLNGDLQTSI

Compared with B1, H-[dC]FY[d2Nal(3S-Me)]KTFC-OH (disulfide 1-8, also called Peptide No. 16) [(cyclo)H-D-Cys-Phe-Tyr-threo-(2R,3S)C^βMe-2Nal-Lys-Thr-Phe-Cys-OH] is 5.9-fold lower in IC50: 71 nM for the first, 12 nM for the second. The second is the more potent here.

Going from B2 to B4, the IC50 rises from 30 nM to 120 nM (4-fold).

Going from B6 to B7, the IC50 falls from 260 nM to 56 nM (4.6-fold). The second is the more potent here.

First: B8
Second: B9
The IC50 of the first is 1.6-fold higher: 550 nM for the first, 347 nM for the second. The second is the more potent here.

B11 showed an IC50 of 170 nM.

Target: T3, cloned human SRIF receptor SSTR4 (human, UniProt P31391 1-388)
T3 construct: whole, on cells; assayed as cryostat sections of membrane pellets of the transfected cells; also called hSSTR4
Experiment: as above
Protocol: as §1, §2

T3 sequence (P31391 whole entry): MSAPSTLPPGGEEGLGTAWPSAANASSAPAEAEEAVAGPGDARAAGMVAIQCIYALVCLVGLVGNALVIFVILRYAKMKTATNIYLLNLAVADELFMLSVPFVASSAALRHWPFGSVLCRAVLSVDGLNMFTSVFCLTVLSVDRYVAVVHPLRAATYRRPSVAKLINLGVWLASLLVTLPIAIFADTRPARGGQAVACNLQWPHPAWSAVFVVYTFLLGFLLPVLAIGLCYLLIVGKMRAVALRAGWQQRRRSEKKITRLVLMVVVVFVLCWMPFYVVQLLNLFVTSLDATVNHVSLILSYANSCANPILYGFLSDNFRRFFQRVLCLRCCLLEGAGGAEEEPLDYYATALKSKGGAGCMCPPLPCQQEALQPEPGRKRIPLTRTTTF

Compared with B1, H-[dC]FY[d2Nal(3S-Me)]KTFC-OH (disulfide 1-8, also called Peptide No. 16) [(cyclo)H-D-Cys-Phe-Tyr-threo-(2R,3S)C^βMe-2Nal-Lys-Thr-Phe-Cys-OH] is 1.6-fold lower in IC50: 0.88 nM for the first, 0.55 nM for the second. The second is the more potent here.

Compared with B2, B3 is 1.6-fold lower in IC50: 2.3 nM for the first, 1.46 nM for the second. The second is the more potent here.

Compared with B4, B5 is 2.6-fold higher in IC50: 1.1 nM for the first, 2.9 nM for the second. The first is the more potent here.

Going from B6 to B7, the IC50 falls from 1.9 nM to 1.2 nM (1.6-fold).

B8 and B9 are the same in IC50: 1.2 nM for the first, 1.2 nM for the second.

Compared with B10, B11 is 2.7-fold lower in IC50: 3 nM for the first, 1.1 nM for the second.

Target: T4, cloned human SRIF receptor SSTR3 (human, UniProt P32745 1-418)
T4 construct: whole, on cells; assayed as cryostat sections of membrane pellets of the transfected cells; also called hSSTR3
Experiment: as above
Protocol: as §1, §2

T4 sequence (P32745 whole entry): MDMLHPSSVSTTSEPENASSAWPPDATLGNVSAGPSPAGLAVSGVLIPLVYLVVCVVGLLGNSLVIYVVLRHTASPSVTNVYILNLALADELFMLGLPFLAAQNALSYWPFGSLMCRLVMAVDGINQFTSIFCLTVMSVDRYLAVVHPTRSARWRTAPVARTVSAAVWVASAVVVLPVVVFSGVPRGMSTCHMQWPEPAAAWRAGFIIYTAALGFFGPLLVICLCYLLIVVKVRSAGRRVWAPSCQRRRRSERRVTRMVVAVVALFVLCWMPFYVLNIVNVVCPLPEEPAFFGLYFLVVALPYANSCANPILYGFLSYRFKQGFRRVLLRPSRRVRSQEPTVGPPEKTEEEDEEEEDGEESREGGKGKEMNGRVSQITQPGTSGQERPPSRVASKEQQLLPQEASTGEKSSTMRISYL

First: B1
Second: H-[dC]FY[d2Nal(3S-Me)]KTFC-OH (disulfide 1-8, also called Peptide No. 16) [(cyclo)H-D-Cys-Phe-Tyr-threo-(2R,3S)C^βMe-2Nal-Lys-Thr-Phe-Cys-OH]
The IC50 of the first is 19-fold higher: 271 nM for the first, 14 nM for the second.

Going from B2 to B3, the IC50 rises from 18 nM to 780 nM (43-fold).

B4 and B5 are within 1.5-fold of each other in IC50: 650 nM for the first, 630 nM for the second.

Going from B6 to B7, the IC50 rises from 135 nM to 263 nM (1.9-fold).

B8 showed an IC50 of 210 nM.

Target: T5, cloned human SRIF receptor SSTR5 (human, UniProt P35346 1-364)
T5 construct: whole, on cells; assayed as cryostat sections of membrane pellets of the transfected cells; also called hSSTR5
Experiment: as above
Protocol: as §1, §2

T5 sequence (P35346 whole entry): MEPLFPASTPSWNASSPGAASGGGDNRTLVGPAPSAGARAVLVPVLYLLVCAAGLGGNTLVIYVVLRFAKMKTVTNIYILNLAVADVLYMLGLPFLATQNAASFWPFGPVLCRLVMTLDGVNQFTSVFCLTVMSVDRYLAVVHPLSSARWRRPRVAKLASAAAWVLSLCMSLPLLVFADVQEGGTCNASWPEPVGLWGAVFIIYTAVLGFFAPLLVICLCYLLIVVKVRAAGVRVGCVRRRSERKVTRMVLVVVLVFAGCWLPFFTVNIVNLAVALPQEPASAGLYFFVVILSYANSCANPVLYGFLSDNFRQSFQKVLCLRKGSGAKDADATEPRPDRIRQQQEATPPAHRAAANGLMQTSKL

B1 and H-[dC]FY[d2Nal(3S-Me)]KTFC-OH (disulfide 1-8, also called Peptide No. 16) [(cyclo)H-D-Cys-Phe-Tyr-threo-(2R,3S)C^βMe-2Nal-Lys-Thr-Phe-Cys-OH] are within 1.5-fold of each other in IC50: 30 nM for the first, 27 nM for the second.

First: B2
Second: B4
The IC50 of the first is 5.7-fold lower: 18 nM for the first, 103 nM for the second. The first is the more potent here.

B5 and B10 are within 1.5-fold of each other in IC50: 610 nM for the first, 557 nM for the second.

B11 gave an IC50 of 240 nM.
